Data on 1 molecule can be found in PMC10716038, “Talin and kindlin use integrin tail allostery and direct binding to activate integrins” (Nature Structural & Molecular Biology, 2023).

Several values for one entry are separate records, joined by “and”; a condition that tells them apart may be missing. Equal entries are not always repeated. No end group written: not given here.

Common to all, as to test: MST; unlabelled protein titrated to 50-200 nM ATTO 488-labelled β-CT peptide, no third protein; 20 mM Tris pH 7.5, 200 mM NaCl, 1 mM TCEP, 0.05% Tween-20; Kd of individual titrations (in S0002 mean and sd, n = 2)
What all share (details): both partners purified

One test addresses T1, THD1 K403A (UniProt P26039 1-405, K403A).
T1 construct: talin-1 (TLN1) head domain, residues 1-405, K403A; source: E. coli (DE3) Rosetta 2, purified (IMAC, SEC); not shown: His10-SUMO, N-terminal, cleaved

Another test concerns the target T2, THD1 K403E (UniProt P26039 1-405, K403E).
T2 construct: talin-1 (TLN1) head domain, residues 1-405, K403E; source: E. coli (DE3) Rosetta 2, purified (IMAC, SEC); not shown: His10-SUMO, N-terminal, cleaved

A further test deals with T3, THD1 K404A (UniProt P26039 1-405, K404A).
T3 construct: talin-1 (TLN1) head domain, residues 1-405, K404A; source: E. coli (DE3) Rosetta 2, purified (IMAC, SEC); not shown: His10-SUMO, N-terminal, cleaved
T3 sequence (P26039 1-405 K404A): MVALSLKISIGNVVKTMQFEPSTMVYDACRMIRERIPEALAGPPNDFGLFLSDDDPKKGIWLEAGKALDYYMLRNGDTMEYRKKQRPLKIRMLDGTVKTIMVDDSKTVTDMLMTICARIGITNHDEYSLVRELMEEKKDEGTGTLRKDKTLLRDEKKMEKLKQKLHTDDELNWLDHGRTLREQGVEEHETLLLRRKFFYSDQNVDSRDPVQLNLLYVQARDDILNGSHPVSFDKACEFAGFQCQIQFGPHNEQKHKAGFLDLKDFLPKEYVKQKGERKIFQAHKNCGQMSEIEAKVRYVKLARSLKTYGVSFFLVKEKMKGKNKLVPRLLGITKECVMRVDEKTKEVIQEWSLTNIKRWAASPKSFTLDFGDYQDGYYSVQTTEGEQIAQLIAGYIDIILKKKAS

Another test concerns the target T4, THD1 Δ401-405 (UniProt P26039 1-405, Δ401-405).
T4 construct: source: E. coli (DE3) Rosetta 2, purified (IMAC, SEC); not shown: His10-SUMO, N-terminal, cleaved

For the next test, the target named is T5, THD1 Y395A (UniProt P26039 1-405, Y395A).
T5 construct: talin-1 (TLN1) head domain, residues 1-405, Y395A; source: E. coli (DE3) Rosetta 2, purified (IMAC, SEC); not shown: His10-SUMO, N-terminal, cleaved
T5 sequence (P26039 1-405 Y395A): as the sequence (P26039 1-405 K404A) above, with Y395A, A404K counted along it

The next test addresses T6, THD1 I396A (UniProt P26039 1-405, I396A).
T6 construct: talin-1 (TLN1) head domain, residues 1-405, I396A; source: E. coli (DE3) Rosetta 2, purified (IMAC, SEC); not shown: His10-SUMO, N-terminal, cleaved

For another test, the target named is T7, THD1 I398A (UniProt P26039 1-405, I398A).
T7 construct: talin-1 (TLN1) head domain, residues 1-405, I398A; source: E. coli (DE3) Rosetta 2, purified (IMAC, SEC); not shown: His10-SUMO, N-terminal, cleaved
T7 sequence (P26039 1-405 I398A): as the sequence (P26039 1-405 K404A) above, with I398A, A404K counted along it

The target in a further test is T8, THD1 I399A (UniProt P26039 1-405, I399A).
T8 construct: talin-1 (TLN1) head domain, residues 1-405, I399A; source: E. coli (DE3) Rosetta 2, purified (IMAC, SEC); not shown: His10-SUMO, N-terminal, cleaved
T8 sequence (P26039 1-405 I399A): as the sequence (P26039 1-405 K404A) above, with I399A, A404K counted along it

The target in another test is T9, THD1 L400A (UniProt P26039 1-405, L400A).
T9 construct: talin-1 (TLN1) head domain, residues 1-405, L400A; source: E. coli (DE3) Rosetta 2, purified (IMAC, SEC); not shown: His10-SUMO, N-terminal, cleaved
T9 sequence (P26039 1-405 L400A): as the sequence (P26039 1-405 K404A) above, with L400A, A404K counted along it

The target of a further test is T10, THD1 K402A (UniProt P26039 1-405, K402A).
T10 construct: talin-1 (TLN1) head domain, residues 1-405, K402A; source: E. coli (DE3) Rosetta 2, purified (IMAC, SEC); not shown: His10-SUMO, N-terminal, cleaved
T10 sequence (P26039 1-405 K402A): as the sequence (P26039 1-405 K404A) above, with K402A, A404K counted along it

Test [1] has as its target T11, talin-2 head domain (THD2) (UniProt Q71LX4 1-408).
T11 construct: talin-2 (TLN2) head domain (THD), residues 1-408; source: E. coli (DE3) Rosetta 2, purified (IMAC, SEC); not shown: His10-SUMO, N-terminal, cleaved

T11 sequence (Q71LX4 1-408): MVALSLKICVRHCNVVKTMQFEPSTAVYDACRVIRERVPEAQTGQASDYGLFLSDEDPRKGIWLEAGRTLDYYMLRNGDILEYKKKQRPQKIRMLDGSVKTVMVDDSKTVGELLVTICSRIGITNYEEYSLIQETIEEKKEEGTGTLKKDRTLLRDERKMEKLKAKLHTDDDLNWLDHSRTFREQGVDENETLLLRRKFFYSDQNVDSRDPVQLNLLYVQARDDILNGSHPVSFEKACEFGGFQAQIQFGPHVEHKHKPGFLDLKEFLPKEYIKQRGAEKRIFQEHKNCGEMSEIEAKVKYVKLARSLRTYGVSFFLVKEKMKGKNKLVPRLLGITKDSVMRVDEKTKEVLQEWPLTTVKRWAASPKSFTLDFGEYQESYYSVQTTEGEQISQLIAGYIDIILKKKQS
T6 sequence (P26039 1-405 I396A): as the sequence (P26039 1-405 K404A) above, with I396A, A404K counted along it
T1 sequence (P26039 1-405 K403A): as the sequence (P26039 1-405 K404A) above, with K403A, A404K counted along it
T4 sequence (P26039 1-400, stated change not applied): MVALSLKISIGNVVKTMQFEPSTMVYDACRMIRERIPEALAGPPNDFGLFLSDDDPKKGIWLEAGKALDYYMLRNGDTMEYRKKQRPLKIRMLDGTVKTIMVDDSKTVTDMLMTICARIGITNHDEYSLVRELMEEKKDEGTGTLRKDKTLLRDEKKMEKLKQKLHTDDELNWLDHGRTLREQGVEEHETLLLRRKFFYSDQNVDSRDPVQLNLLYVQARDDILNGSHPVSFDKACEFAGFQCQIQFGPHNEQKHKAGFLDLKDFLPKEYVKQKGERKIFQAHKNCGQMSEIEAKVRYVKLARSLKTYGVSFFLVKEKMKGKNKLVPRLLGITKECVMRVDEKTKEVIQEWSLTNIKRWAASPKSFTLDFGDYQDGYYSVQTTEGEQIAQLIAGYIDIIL
T2 sequence (P26039 1-405 K403E): as the sequence (P26039 1-405 K404A) above, with K403E, A404K counted along it

B1: ATTO 488-labeled integrin β3 cytoplasmic tail (488–β3-CT) (peptide, UniProt O54890 741-787, looked up)
peptide: {ATTO 488}-KLLITIHDRKEFAKFEEERARAKWDTANNPLYKEATSTFTNITYRGT
notes: integrin β3 cytoplasmic tail (β3-CT); source: synthetic peptide (MPIB Core Facility)
As to B1, the equilibrium dissociation constant (Kd) (as a rule, the equilibrium constant for the complex coming apart) came to 68.1 µM in the test with THD1 K403A; 60.9 µM with THD1 K403E; 90.1 µM with THD1 K404A; 250 µM with THD1 Δ401-405; 27.7 µM in the test with THD1 Y395A; 579 µM in the test with THD1 I396A. In addition, the Kd was 141 µM with THD1 I398A; 55.2 µM in the test with THD1 I399A; 190 µM in the test with THD1 L400A; 45 µM with THD1 K402A; 31.7 µM and 32.1 µM and 49.1 µM in test [1].
